A protein production outcome set (Wang et al. 2014)

Assay: label from the status in PepcDB records
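Also: failed if final PepcDB status was selected cloned or expressed and not failed if soluble or beyond.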

Sequence: MEEKQILCVGLVVLDVISLVDKYPKEDSEIRCLSQRWQRGGNASNSCTILSLLGAPCAFMGSMAPGHVADFVLDDLRRYSVDLRYTVFQTTGSVPIATVIINEASGSRTILYYDRSLPDVSATDFEKVDLTQFKWIHIEGRNASEQVKMLQRIDAHNTRQPPEQKIRVSVEVEKPREELFQLFGYGDVVFVSKDVAKHLGFQSAEEALRGLYGRVRKGAVLVCAWAEEGADALGPDGKLLHSDAFPPPRVVDTLGAGDTFNASVIFSLSQGRSVQEALRFGCQVAGKKCGLQGFDGIV
- protein production: failed

Sequence: MEELFCIGCGARIQTENKDAAGYTPRAALEKGLETGELYCQRCFRLRHYNEITDVHITDDEFLKLLHEVGDSDALVVNVIDIFDFNGSIIPGLSRFVAGNDVLLVGNKKDILPKSVKDGKVTQWLTERAHEEGLRPVDVILTSAQNHHAIKDLIDTIEKYRHGQDVYVVGVTNVGKSTLINAIIREITGSRDVITTSRFPGTTLDKIEIPLDDGSYIFDTPGIIHRHQMAHYLTAKNLKYVSPKKEIKPKTYQLNSEQTLFLAGLARFDFISGQKQGFTAYFDNNLNLHRTKLVGADEFYTKHVGKLLTPPTGKEVSDFPKLVRHEFTIKDKMDIVYSGLGWIRVKSEAENPVVVAAWAPEGVAVVLRKALI
- protein production: failed

Sequence: MEELVGLLRIRVKRGINLAQRDTLSSDPFVVITMGSQKLKTRVVENNCNPEWNEELTLALRHPDEPVNLIVYDKDTFTSHDKMGDAKIDIKPFLEVHKMGLQELPDGTEIKRVVPNRENCLAEASSIVSNNGKIVQNMILLLRNVECGEVEIQLEWIDIPGSRGL
- protein production: failed

Sequence: MEEPKWLEGLLRTNFFSICPRHRETPRNECNMFCLSCQNAAFCFYCRSSFHIDHPVLQIRRSSYHDVVRVSEIENALDIRGVQTYVINSARVLFLNERPQPKNSSHEPFLIPFASVPWVARFVFLHLFSMQNSFL
- protein production: not failed

Sequence: MEEPLRQESPTTFHAKTSDRGQIDLGISKHKTVAEAWEGYRQRRHRSTHLQAIETALLQQRNDRTEDEDIVLWKGKNDVYKPQFLTKETLNHMRTISMDVDWYKGVWFGHSTPKYSFCVWLAVLNRLSTGDRMTHWNGGQSAACVLCHNAPETRDHLFFSCDFASIVWSNLARGIYGDRFSTHWQDLIQAISGSWMTPLDSFFARYLFQATVHTIWRERNGRNHGEKPNSAALLIK
- protein production: failed

Sequence: MEERSQLFLEQYLSSVSREVSEKYTSFSADYFCADEYNANVCADLILRGEKRASCSLEYWYSQKGELMPQVGHLQVVTNWDGKPICIIEITSVSKCQYNQVSEDFAASEGEGDKSLAWWQEAHRNFFSRECHELGIEFREDMLLVLEHFKVVYH
- protein production: not failed

Sequence: MEESATVEVVVGRVGRAHGLRGDVVVEVRTDEPDARFGVGATVQIEGSRRDLTVVRSRWAKGCLIVAFDEVKDRQGAEELRGSVLVVDVEPNDDPDDPDEFWDRRLRGLTVVDESGKSRGAVKDVLHMPAQDVLVIDVSGEEHLVPFVHQLVPTVDVASGRIVVSGIPGLLDSNAEEAR
- protein production: failed

Sequence: MEESRESPAEHGYYMPAEWDSHAQTWIGWPERQDNWRHNALPAQRVFADVAKAISKFEPVTVCASPAQWENARKQLPEDIRVVEMSMNDSWFRDSGPTFIVRKRPVKLSSLNRNIAGIDWNFNAWGGANDGCYNDWSHDLLVSRKILALERIPRFQHSMILEGGSIHVDGEGTCLVTEECLLNKNRNPHMSKEQIEEELKKYLGVQSFIWLPRGLYGDEDTNGHIDNMCCFARPGVVLLSWTDDETDPQYERSVEALSVLSNSIDARGRKIQVIKLYIPEPLYMTEEESSGITQDGEAIPRLAGTRLAASYVNFYIANGGIIAPQFGDPIRDKEAIRVLSDTFPHHSVVGIENAREIVLAGGNIHCITQQQPAEPTSVAENGH
- protein production: not failed

Sequence: MEEVLKLKIPASTANLGVGFDSIGMALDKYLHMSIRKIERSNWEFLYYSSELEGLPKDENNYIYQTALNVAHKYNVTLPSLQIEMRSDIPLARGLGSSASALVGALFIANYFGNIQLSKYELLQLATEIEGHPDNVAPTIYGGLIAGFYNPITKIT
- protein production: failed

Sequence: MEFCPKCKSLMIYQGDKLVCRKCGYEKEADDSEELVIKVERNKEDVPVIEGENLKTLPTTKAICPACGHNEAFWWLRQLRAADESEVRFFRCTKCGKTWREYD
- protein production: failed

Sequence: MEFEMLETETNGTIIKVIGVGGAGGNAVQHMINKGVQGVDFVVMNTDAQALSRSRAPSVIQLGNTGLGAGAKPEMGRAAAEEARERIADALRGAHMVFITAGMGGGTGTGAAPVVAQIAKEMGILTVGVVSKPFEFEGGKRMRVAEAGSQQLEDHVDSLIVVLNDKLFEVMGDDAEMDKCFQCADDVLNNAVAGIAEIINVDGLVNVDFEDVKTVMGEQGKAMMGTATVAGVDRARLAAEQAVASPLLEGVDLSGARGVLVNITSSRSLRLSETREVMNTIKSYAADDATVIFGAVYDDAMGDALRVTVVATGLGRAAKKQQSAPMTLLRTGTDNQPISAAPQGYAASHHVSTGDYGAFDTPAVWRNSRETAASHVQALQEKGVDTYDIPAFLRKQAD
- protein production: not failed

Sequence: MEFTAEQLSQYNGTDESKPIYVAIKGRVFDVTTGKSFYGSGGDYSMFAGKDASRALGKMSKNEEDVSPSLEGLTEKEINTLNDWETKFEAKYPVVGRVVS
- protein production: not failed

Sequence: MEGALAANWSAEAANASAAPPGAEGNRTAGPPRRNEALARVEVAVLCLILLLALSGNACVLLALRTTRQKHSRLFFFMKHLSIADLVVAVFQVLPQLLWDITFRFYGPDLLCRLVKYLQVVGMFASTYLLLLMSLDRCLAICQPLRSLRRRTDRLAVLATWLGCLVASAPQVHIFSLREVADGVFDCWAVFIQPWGPKAYITWITLAVYIVPVIVLATCYGLISFKIWQNLRLKTAAAAAAEAPEGAAAGDGGRVALARVSSVKLISKAKIRTVKMTFIIVLAFIVCWTPFFFVQMWSVWDANAPKEASAFIIVMLLASLNSCCNPWIYMLFTGHLFHELVQRFLCCSASYLKGRRLGETSASKKSNSSSFVLSHRSSSQRSCSQPSTA
- protein production: not failed

Sequence: MEGERMNAFPSTMMDEELNLWDFLERAAALFGRKEVVSRLHTGEVHRTTYAEVYQRARRLMGGLRALGVGVGDRVATLGFNHFRHLEAYFAVPGMGAVLHTANPRLSPKEIAYILNHAEDKVLLFDPNLLPLVEAIRGELKTVQHFVVMDEKAPEGYLAYEEALGEEADPVRVPERAACGMAYTTGTTGLPKGVVYSHRALVLHSLAASLVDGTALSEKDVVLPVVPMFHVNAWCLPYAATLVGAKQVLPGPRLDPASLVELFDGEGVTFTAGVPTVWLALADYLESTGHRLKTLRRLVVGGSAAPRSLIARFERMGVEVRQGYGLTETSPVVVQNFVKSHLESLSEEEKLTLKAKTGLPIPLVRLRVADEEGRPVPKDGKALGEVQLKGPWITGGYYGNEEATRSALTPDGFFRTGDIAVWDEEGYVEIKDRLKDLIKSGGEWISSVDLENALMGHPKVKEAAVVAIPHPKWQERPLAVVVPRGEKPTPEELNEHLLKAGFAKWQLPDAYVFAEEIPRTSAGKFLKRALREQYKNYYGGA
- protein production: not failed

Sequence: MEGESVKLSSQTLIQAGDDEKNQRTITVNPAHMGKAFKVMNELRSKQLLCDVMIVAEDVEIEAHRVVLAACSPYFCAMFTGDMSESKAKKIEIKDVDGQTLSKLIDYIYTAEIEVTEENVQVLLPAASLLQLMDVRQNCCDFLQSQLHPTNCLGIRAFADVHTCTDLLQQANAYAEQHFPEVMLGEEFLSLSLDQVCSLISSDKLTVSSEEKVFEAVISWINYEKETRLEHMAKLMEHVRLPLLPRDYLVQTVEEEALIKNNNTCKDFLIEAMKYHLLPLDQRLLIKNPRTKPRTPVSLPK
- protein production: not failed

Sequence: MEGKEEDVRVGANKFPERQPIGTSAQSDKDYKEPPPAPFFEPGELSSWSFWRAGIAEFIATFLFLYITVLTVMGVKRSPNMCASVGIQGIAWAFGGMIFALVYCTAGISGGHINPAVTFGLFLARKLSLTRALYYIVMQCLGAICGAGVVKGFQPKQYQALGGGANTVAHGYTKGSGLGAEIIGTFVLVYTVFSATDAKRNARDSHVPILAPLPIGFAVFLVHLATIPITGTGINPARSLGAAIIYNKDHSWDDHWVFWVGPFIGAALAALYHVVVIRAIPFKSRS
- protein production: failed

Sequence: MEGMDPLAVLAESRLLPLLTVRGGEDLLGLARVLEEEGVGALEITLRTEKGLEALKALRKSGLLLGAGTVRSPKEAEAALEAGAAFLVSPGLLEEVAALAQARGVPYLPGVLTPTEVERALALGLSALKFFPAEPFQGVRVLRAYAEVFPEVRFLPTGGIKEEHLPHYAALPNLLAVGGSWLLQGNLEAVRAKVRAAKALLSPQAPG
- protein production: not failed

Sequence: MEGNKSLVVAHAQRCVVLRFLKFPPNKKKTSEEILQHLQNIVDFGKNVMKDFLGENYVHCGEVVQLPLEFVKQLCLKIQCERPESRCDKDLDTFSGYAMCLPNLTRLQTFHFAEHRPILCVEIKPKCGFIPFSNDVTHEMKHKVCRYCMHQHLKVATGKWKKISKYCPLDLYSGNKQRMHFALRSLLQETQNNLRIFKNGELIYGCGDARSPVADLKELAHHLKPFFFPSNGLASGPHCTKAVIRELVHVITRVLLSSSEKARAGALRLGLQGPRVCEASPFSRSLHNQGKNTSEHSGLPKGCLLYKTLQVQMLDQLDIEGLYPLYKRVEQYLEEFPEERKTLQIDGPYDEVFYQKLLDLSTEDDGTVAFALTKVQQYRVAMTAKDCSIMIALSPCLEHHHHHH
- protein production: failed

Sequence: MEGQENKVLFGLENVHYATYSETDGVITYDTPKPLPGGVEISVEPQGDMIKFYADNIVYYQAPNNQGYEGTLTIASIPEGFATDCLGEELDTVDGVLTEKSDAKPKPFALLFEFDGDVKSVRQVLYNCTASRPTVASSTLEHHHHHH
- protein production: not failed

Sequence: MEHDERTHVPVELRAAGVVLLNERGDILLVQEKGIPGHPEKAGLWHIPSGAVEDGENPQDAAVREACEETGLRVRPVKFLGAYLGRFPDGVLILRHVWLAEPEPGQTLAPAFTDEIAEASFVSREDFAQLYAAGQIRMYQTKLFYADALREKGFPALPV
- protein production: not failed

Sequence: MEHPLIRIVILAVLAYVGYALLCFLVQRTIIYPGRSLSVAGQPPDLPDIHPLWLTTPYGHVESWFLPATGSVAGDRRPVVLFFHGNGEVIDVLPDQAEGFRRMGMHVMLVEYPGYGRSGGSPSEEGITAAAVAAYDELVRRSDTDSGRMIAFGRSLGCGAACALSLRRPLAALILQSPFTSTRPFARQMLLPGFLARDVFDNRKALESYGGAVLILHGTEDDIIPVGHGRELARTVRRGCLIELRCGHNDCPPDWLEFWRIIEGFLEQEGVSGRK
- protein production: failed

Sequence: MEIFFTILILTLVVSLSGVVTRILPFQVPLPLMQIALGAILAWPQFGLHVDFNPELFMVLFIPPLLFADGWKTPTREFLRHGREIIGLALVLVLITVVGIGYFIYWMVPGMPLIAAFALAAVLSPTDAVALSGIVGEGRIPKKLMGILQGEALMNDASGLVSLKFAVAIAMGTMVFTVSGATLEFVQVALGGLLAGVGVTWIFGKSLRVISRWSGDDAATQIVLLLLLPFASYLIAEHIGVSGILAAVAAGMTIGQSGVIRSAPLTMRMRANGVWSMLEFVFNGMVFIMLGLQLPDILETSVTQAELDPTVETWMLFTDIAIIYGALLLLRFSWLWVMRTYSVHIQKKRPMVFAEFSTRELWIASFAGVRGAITLAGVLSIPLLLTDGTAFPSRYQLVFIATGVILFSLLCGVLALPFLLRGVVVADKAAHAKEIRMARMAVAEVAIKSMHKMEERLAADREENIDEQVLKEVSARVIGNLRRRLINKDDPENGLLIENLERRFRLTALNSERAELYHLRATQQISNETLQKMLRDLDLMEALLIENE
- protein production: failed

Sequence: MEIHSERKKRLSLSLLFKIIKDTVWGFIDDSVMRLSASLAYATLFSIIPFLSLLVTVGVFFHMDLANQLYVQLQPIVGPEVTEALRSIIENAENTDSSRSAAFVSLGISILGATTIFAEIQSSLNSIWGIKAVPKKSWLKFIKNRILSFSIILVFAFILLITFTITNIIGELSQKFIFKYPEVADSLVKVVGIIINMSVTTIIFTLIFKILPDAKIKSKDVCIGAVVTTILLLIGQWGISFYIGIANVGTVYGAAAFMVVFVTWIYYSSIIIYTGAEFTKAWANEMGGKIFPDEYAVATKTIEIHEDKPIE
- protein production: failed
